Substitutions are numbered along the chain they refer to.
T1: CD123-his
T1 construct: also called histidine tagged human CD123; His-tagged CD123 ECD
T1 extracellular domain with C-terminal His tag: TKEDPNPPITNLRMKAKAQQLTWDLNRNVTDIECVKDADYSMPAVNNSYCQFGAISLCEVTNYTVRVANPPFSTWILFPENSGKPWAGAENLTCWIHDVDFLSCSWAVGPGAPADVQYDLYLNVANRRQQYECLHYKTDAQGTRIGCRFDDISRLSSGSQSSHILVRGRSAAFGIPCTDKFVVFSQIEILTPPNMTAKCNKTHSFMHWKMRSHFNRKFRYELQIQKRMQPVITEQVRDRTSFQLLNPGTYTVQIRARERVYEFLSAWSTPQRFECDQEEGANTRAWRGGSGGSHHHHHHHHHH

B1: hz1F5v1-IgG1 (Fc fusion)
chain: EVQLVESGGGEVQPGGSLRLSCAASGRAINMYAMGWFRQAPGKEREFVAAINWNGAYTQYAESVKGRFTISRDNAKNTLYLQMSSLRAEDTAVYYCSADADYNTYVSPNKRVSYWGQGTLVTVDKTHTCPPCPAPGGPSVFLFPPKPKDTLMISRTPEVTCVVVDVSHEDPEVKFNWYVDGVEVHNAKTKPREEQYNSTYRVVSVLTVLHQDWLNGKEYKCKVSNKALPAPIEKTISKAKGQPREPQVYTLPPSRDELTKNQVSLTCLVKGFYPSDIAVEWESNGQPENNYKTTPPVLDSDGSFFLYSKLTVDKSRWQQGNVFSCSVMHEALHNHYTQKSLSLSPGK
B2: hzF3v22-IgG1 (Fc fusion)
chain: EVQLVESGGGLVQPGGSLRLSCAASGRAINAYNMGWFRQAPGKGREFVSAINWNAARTYYAESVKGRFTISRDNAKNTLYLQMSSLRAEDTAVYYCAASGRWSAAVPSGEDQYNFWGQGTLVTVDKTHTCPPCPAPGGPSVFLFPPKPKDTLMISRTPEVTCVVVDVSHEDPEVKFNWYVDGVEVHNAKTKPREEQYNSTYRVVSVLTVLHQDWLNGKEYKCKVSNKALPAPIEKTISKAKGQPREPQVYTLPPSRDELTKNQVSLTCLVKGFYPSDIAVEWESNGQPENNYKTTPPVLDSDGSFFLYSKLTVDKSRWQQGNVFSCSVMHEALHNHYTQKSLSLSPGK
notes: also called hzF3v22 sdAb
B3: hz1B11v28-IgG1 (Fc fusion)
chain: EVQLVESGGGEVQPGGSLRLSCAASGRTQSAVAMGWFRQAPGKDRDFVAAIRWSGGNTYYAESVEGRFTISRDNAKNTVYLQMSSLRAEDTAVYSCAISLNHFGLYDYWGQGTLVTVDKTHTCPPCPAPGGPSVFLFPPKPKDTLMISRTPEVTCVVVDVSHEDPEVKFNWYVDGVEVHNAKTKPREEQYNSTYRVVSVLTVLHQDWLNGKEYKCKVSNKALPAPIEKTISKAKGQPREPQVYTLPPSRDELTKNQVSLTCLVKGFYPSDIAVEWESNGQPENNYKTTPPVLDSDGSFFLYSKLTVDKSRWQQGNVFSCSVMHEALHNHYTQKSLSLSPGK
notes: also called hz1B11v28 sdAb
B4: hzA5v2-IgG1 (Fc fusion)
chain: EVQLVESGGGEVQPGGSLRLSCAASGGTFSSYGMAWFRQAPGKEREWVASNSWIAGSTYYAESVKGRFTISRDNAKNTVYLQMSSLRAEDTAVYYCAADLLATADDEYDYWGQGTLVTVDKTHTCPPCPAPGGPSVFLFPPKPKDTLMISRTPEVTCVVVDVSHEDPEVKFNWYVDGVEVHNAKTKPREEQYNSTYRVVSVLTVLHQDWLNGKEYKCKVSNKALPAPIEKTISKAKGQPREPQVYTLPPSRDELTKNQVSLTCLVKGFYPSDIAVEWESNGQPENNYKTTPPVLDSDGSFFLYSKLTVDKSRWQQGNVFSCSVMHEALHNHYTQKSLSLSPGK
notes: also called hzA5v2 sdAb
B5: 1B11-IgG1 (Fc fusion)
chain: QVQLVQSGGGSVQAGGSLRLSCAAAGRTQSAVAMGWFRQDPGKDRDFVAAIRWSGGNTYYADSAEGRFTISRDNAKNTVYLQMDSLKPEDTAVYSCAISMNHFGMYDYWGQGTQVTVDKTHTCPPCPAPGGPSVFLFPPKPKDTLMISRTPEVTCVVVDVSHEDPEVKFNWYVDGVEVHNAKTKPREEQYNSTYRVVSVLTVLHQDWLNGKEYKCKVSNKALPAPIEKTISKAKGQPREPQVYTLPPSRDELTKNQVSLTCLVKGFYPSDIAVEWESNGQPENNYKTTPPVLDSDGSFFLYSKLTVDKSRWQQGNVFSCSVMHEALHNHYTQKSLSLSPGK
B6: 1F5-IgG1 (Fc fusion)
chain: QVQLVQSGGGLVQAGGSLTVSCTASGRAINMYAMGWFRQAPGKEREFVAAINWNGAYTQYADSVKGRFTISRDNAKNTMYLQMNSLKPEDTAQYYCSADADYNTYVSPNKRVSYWGQGTQVTVDKTHTCPPCPAPGGPSVFLFPPKPKDTLMISRTPEVTCVVVDVSHEDPEVKFNWYVDGVEVHNAKTKPREEQYNSTYRVVSVLTVLHQDWLNGKEYKCKVSNKALPAPIEKTISKAKGQPREPQVYTLPPSRDELTKNQVSLTCLVKGFYPSDIAVEWESNGQPENNYKTTPPVLDSDGSFFLYSKLTVDKSRWQQGNVFSCSVMHEALHNHYTQKSLSLSPGK
B7: 4F2-IgG1 (Fc fusion)
chain: EVQLVQSGGGLVQAGGSLRLSCAASGRTVSNYPMAWFRQAPGKEREFVAHISWSGITSILNSVNDRFTISRDNAKNTIYLQMNSLKPEDTAVYYCAAAQRPTAGPKGPFGYWGQGTQVTVDKTHTCPPCPAPGGPSVFLFPPKPKDTLMISRTPEVTCVVVDVSHEDPEVKFNWYVDGVEVHNAKTKPREEQYNSTYRVVSVLTVLHQDWLNGKEYKCKVSNKALPAPIEKTISKAKGQPREPQVYTLPPSRDELTKNQVSLTCLVKGFYPSDIAVEWESNGQPENNYKTTPPVLDSDGSFFLYSKLTVDKSRWQQGNVFSCSVMHEALHNHYTQKSLSLSPGK
B8: hz1F5v2-IgG1 (Fc fusion)
chain: B1 chain with A23T
B9: hzF3v26-IgG1 (Fc fusion)
chain: B2 chain with A23R
B10: F3-IgG1 (Fc fusion)
chain: EVQLVQSGGGLVQAGGSLRLSCRASGRAINSYNMGWFRQAPGKEREFVSAINWNGARTYYQDALKGRFAISRDNARNTMYLQMNNLKPEDTAVYYCAAAGRWSAAVPSGEDQYNFWGQGTQVTVDKTHTCPPCPAPGGPSVFLFPPKPKDTLMISRTPEVTCVVVDVSHEDPEVKFNWYVDGVEVHNAKTKPREEQYNSTYRVVSVLTVLHQDWLNGKEYKCKVSNKALPAPIEKTISKAKGQPREPQVYTLPPSRDELTKNQVSLTCLVKGFYPSDIAVEWESNGQPENNYKTTPPVLDSDGSFFLYSKLTVDKSRWQQGNVFSCSVMHEALHNHYTQKSLSLSPGK
notes: also called sdAb F3
B11: A5-IgG1 (Fc fusion)
chain: B4 chain with E6Q, E11L, P14A, A24V, A40P, E62G, S84N, R87K, A88P, L116Q
notes: No linker between VHH and Fc is stated; also called sdAb A5

What follows are binders tested against T2, human CD123 (full-length, on cells) (human, UniProt P26951 19-378) (assay: flow cytometry blocking assay, sdAb titrated on CD123-expressing HEK-293 cells with a fixed amount of IL-3-mFc).
T2 construct: also called CD123-FL; interleukin-3 receptor alpha chain
Method: (§1) Certain CD123-binding sdAbs were tested for the ability to block CD123 binding to IL-3 by titrating the sdAb onto CD123 expressing HEK-293 cells in the presence of a fixed amount of recombinant IL-3-mFc. Bound IL-3 was detected by flow cytometry using fluorophore conjugated anti-mouse IgG specific secondary antibody.
In the case of B1, the “IC50 (read off the curve)” value is reported as roughly 1000 pM.

Target: T1, CD123-his
Test: BLI, CD123-his on Ni-NTA sensors preloaded with hzA5v2, second sdAb 100 nM
Method: (§2) The epitopes of single domain antibodies (sdAbs) that comprise VHH domains that bind CD123 were compared using Bio-Layer Interferometry. 5 ug/mL of histidine tagged human CD123 was immobilized on Nickel-nitrilotriacetic acid (Ni-NTA) coated capture sensors. 100 nM of one sdAb was then loaded onto the CD123 antigen and allowed to come to equilibrium. The sensors were then transferred into 100 nM of a second sdAb.
B1: binds. B2: binds.

Target: T1, CD123-his
Test: BLI, CD123-his captured on Ni-NTA sensors, first sdAb 100 nM
Method: as §2
B3: binds. B4: binds.

What follows are binders tested against T2, human CD123 (full-length, on cells) (assay: flow cytometry, HEK 293 cells transfected with full-length CD123 (CD123-FL); Median RL-1H).
Method: (§3) Binding of sdAbs to human CD123 was assessed by flow cytometry. […] HEK 293 cells were transiently transfected with a plasmid encoding full-length CD123 (UniProt Accession No. P26951-1; mature form, SEQ ID NO: 1) and used as the positive cell line in FIGS. 2A to 2M, and untransfected HEK 293 cells were used as CD123-negative cells. In FIG. 2N, Molm-13 cells, which express CD123, were used as the positive cell line. Each cell type was plated at 30,000 cells/well in FACS buffer (PBS 1% BSA, 0.1% NaN₃ pH 7.4) on a 96-well round-bottom plate. The sdAbs were diluted in FACS buffer in a 3-fold, 11 point serial dilution. The sdAb dilutions were added to the plated cells, and assay plates were incubated for 30 minutes at 4° C. After washing twice in 150 μL of FACS buffer, cells in each well were resuspended in 100 μL of 1:2000 Alexa Fluor 647-conjugated Anti-Human IgG secondary diluted in FACS buffer and incubated at 4° C. for 30 minutes. The cells were washed twice more, then bound antibody was detected by flow cytometry.
(§4) Flow cytometric analysis was performed on an Intellicyte iQue Plus and fluorescence was plotted as median fluorescence intensity. The apparent affinity (Kd, nM) was determined using one site binding non-linear regression in PRISM graph software.
Target sequence in this assay (P26951 19-378): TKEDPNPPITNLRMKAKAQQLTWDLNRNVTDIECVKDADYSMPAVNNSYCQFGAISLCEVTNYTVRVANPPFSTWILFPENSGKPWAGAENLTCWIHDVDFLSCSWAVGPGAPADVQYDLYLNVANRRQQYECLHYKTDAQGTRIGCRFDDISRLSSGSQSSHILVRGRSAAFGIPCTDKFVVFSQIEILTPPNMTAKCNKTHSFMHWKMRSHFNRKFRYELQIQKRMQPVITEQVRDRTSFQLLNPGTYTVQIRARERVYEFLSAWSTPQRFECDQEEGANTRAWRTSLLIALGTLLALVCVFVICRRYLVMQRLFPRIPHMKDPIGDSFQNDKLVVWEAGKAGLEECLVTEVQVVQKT
With B5 the “EC50 (read off the curve)” value was roughly 600 pM. With B3 the “EC50 (read off the curve)” value was roughly 900 pM. With B6 the “EC50 (read off the curve)” value was roughly 900 pM. In the case of B7, the “EC50 (read off the curve)” value is reported as 1000 to 2000 pM. For B1, the “EC50 (read off the curve)” value was roughly 600 pM. For B8, the “EC50 (read off the curve)” value was roughly 1000 pM. In the case of B2, the “EC50 (read off the curve)” value is reported as roughly 700 pM. In the case of B9, the “EC50 (read off the curve)” value is reported as roughly 1000 pM. With B10 the “EC50 (read off the curve)” value was roughly 600 pM.

Target: T2, human CD123 (full-length, on cells)
Test: flow cytometry blocking assay, sdAb titrated on CD123-expressing HEK-293 cells with a fixed amount of IL-3-mFc
Remark: another data set of the same source
Method: as §1
For B11, the “IC50 (read off the curve)” value was 300 to 800 pM. B10 was tested, and the “IC50 (read off the curve)” value was roughly 1000 pM.

Each binder was assayed against T2, human CD123 (full-length, on cells) (assay: flow cytometry on HEK 293 cells transfected with full-length CD123; apparent Kd, one-site fit).
Method: as §3, §4
With B5 the Kd was 520 pM. For B3, the Kd was 960 pM. B6 was tested, and the Kd was 970 pM. Work on B7 yielded a Kd of 1370 pM. B1 was tested, and the Kd was 580 pM. B8 gave a Kd of 920 pM. B11 was tested, and the Kd was 120 pM. B4 was tested, and the Kd was 110 pM. Work on B2 yielded a Kd of 590 pM. In the case of B9, the Kd is reported as 930 pM. Work on B10 yielded a Kd of 530 pM.
